Data published in article PMC8393265.

Biological target: SARS-CoV-2 spike receptor-binding domain (RBD), recombinant, produced in house (SARS-CoV-2) (UniProt P0DTC2)
Test: SEC

Substance: SARS-CoV-2 spike receptor-binding domain (RBD), recombinant, produced in house (from UniProt P0DTC2) (domain or fragment)
- stoichiometry N: 3
